US20130078247A1 (Boehringer Ingelheim, published 2013)

Experiments:
recombinant mouse DLL4 = molecular target: T1, recombinant mouse DLL4 (mouse, UniProt Q9JI71 27-532); assay: ProteOn off-rate screen, periplasmic extract, mDLL4 on chip
T1 construct: extracellular domain; also called rmDLL4; mDLL4; not shown: C-terminal His tag
Method: (§1) In a first cycle, amino acid substitutions are introduced randomly in both framework (FW) and complementary determining regions (CDR) using the error-prone PCR method. […] After a polish step, PCR products are inserted via unique restriction sites into a vector designed to facilitate phage display of the VHH library. […] No selections on murine DLL4 are included as (conservation of) cross-reactivity is assessed at the screening level. Individual mutants are produced as recombinant protein using an expression vector derived from pUC119, which contains the LacZ promoter, a resistance gene for ampicillin, a multiple cloning site and an ompA leader sequence (pAX50). E. coli TG1 cells are transformed with the expression vector library and plated on agar plates (LB+Amp+2% glucose). Single colonies are picked from the agar plates and grown in 1 mL 96-deep-well plates. VHH expression is induced by adding IPTG (1 mM). Periplasmic extracts (in a volume of ˜80 uL) are prepared according to standard methods and screened for binding to recombinant human and mouse DII4 in a ProteOn (BioRad, Hercules, Calif., USA) off-rate assay. […] Periplasmic extract of affinity matured clones is diluted 1/10 and injected across the “analyte channels” A1-A6. An average off-rate is calculated of the wild type clones present in the plate and served as a reference to calculate off-rate improvements.

recombinant human DLL4 = molecular target: T2, recombinant human DLL4 (human, UniProt Q9NR61 25-522); assay: ProteOn off-rate screen, periplasmic extract, hDLL4 on chip
T2 construct: R&D Systems C-terminally His-tagged extracellular domain; also called rhDLL4; hDLL4; not shown: C-terminal His tag
Method: as §1

[1] = molecular target: T3, human DLL4, full length, overexpressed on CHO or HEK293 cells (human, UniProt Q9NR61 27-685); assay: periplasmic extract; FMAT, Notch1/Fc on CHO-hDLL4
T3 construct: also called CHO-hDLL4; CHO-hDII4
Source text: (§2) All calculations are based on the FL1_total signal which comprises the average of the fluorescence per well times the number of counts per well.

[2] = molecular target: T4, mouse DLL4, full length, overexpressed on CHO or HEK293 cells (mouse, UniProt Q9JI71 27-686); assay: periplasmic extract; FMAT, Notch1/Fc on CHO-mDLL4
T4 construct: whole, on cells; also called CHO-mDLL4; CHO-mDII4
T4 sequence (Q9JI71 27-686): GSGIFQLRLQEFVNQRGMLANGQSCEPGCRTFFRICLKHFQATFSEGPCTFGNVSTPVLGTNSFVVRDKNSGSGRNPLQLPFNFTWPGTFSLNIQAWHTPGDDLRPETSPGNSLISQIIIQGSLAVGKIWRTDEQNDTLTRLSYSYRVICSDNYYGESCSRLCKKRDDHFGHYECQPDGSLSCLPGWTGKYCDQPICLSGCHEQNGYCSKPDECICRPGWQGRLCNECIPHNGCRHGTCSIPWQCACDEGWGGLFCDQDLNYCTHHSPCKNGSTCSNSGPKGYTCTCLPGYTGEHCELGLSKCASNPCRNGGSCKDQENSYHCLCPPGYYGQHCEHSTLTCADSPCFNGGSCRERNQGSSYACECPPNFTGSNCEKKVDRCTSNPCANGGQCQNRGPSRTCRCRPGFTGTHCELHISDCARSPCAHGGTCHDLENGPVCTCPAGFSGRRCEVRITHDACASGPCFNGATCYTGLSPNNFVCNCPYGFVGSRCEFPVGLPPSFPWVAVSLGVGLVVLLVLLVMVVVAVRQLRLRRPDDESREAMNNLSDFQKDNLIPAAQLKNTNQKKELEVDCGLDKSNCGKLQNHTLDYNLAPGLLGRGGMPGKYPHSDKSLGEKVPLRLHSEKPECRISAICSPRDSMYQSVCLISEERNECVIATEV
Source text: as §2

T1 sequence (Q9JI71 27-532): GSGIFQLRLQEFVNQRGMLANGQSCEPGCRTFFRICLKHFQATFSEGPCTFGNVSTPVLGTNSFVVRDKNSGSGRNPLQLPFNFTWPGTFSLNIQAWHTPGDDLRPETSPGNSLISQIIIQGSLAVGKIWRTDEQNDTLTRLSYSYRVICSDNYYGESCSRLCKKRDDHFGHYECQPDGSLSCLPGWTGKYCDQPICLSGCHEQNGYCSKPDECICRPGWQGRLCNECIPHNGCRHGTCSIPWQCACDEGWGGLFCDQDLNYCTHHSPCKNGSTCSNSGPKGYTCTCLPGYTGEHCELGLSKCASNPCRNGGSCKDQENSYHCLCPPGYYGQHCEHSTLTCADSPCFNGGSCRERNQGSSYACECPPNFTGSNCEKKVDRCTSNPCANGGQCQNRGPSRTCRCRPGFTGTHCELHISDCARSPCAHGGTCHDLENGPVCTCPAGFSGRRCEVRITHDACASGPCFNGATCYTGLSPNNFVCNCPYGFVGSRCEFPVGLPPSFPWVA

Row | Binder | fold (off-rate improvement over DLLBII101G08) (recombinant mouse DLL4) [fold] | fold (off-rate improvement over DLLBII101G08) (recombinant human DLL4) [fold] | % inhibition [1] [%] | % inhibition [2] [%]
1 | DLLBII129A03 (VHH, not shown: C-terminal c-myc tag and (His)6 tag) VHH: EVQLVESGGGLVQAGGSLRLSCAASGRTFSSYAMAWFRQAPGKEREYVAAIRWSGGTAYYADSVQGRFTISRDNAKNTVYLQMNSLRPEDTAVYYCANRAPDTRLRPYLYDYWGQGTQVTVSS | 18 | 19 |  | 
2 | DLLBII129B02 (VHH) VHH: EVQLVESGGGLVQAGGSLSLSCAASGRTFSSYAMAWYRQAPGKEREYVAAIRWSGGTAYYADSVQGRFTISRDNAKNTVYLQMNSLKPEDTAVYYCANRAPDTRLEPYEYDHWGQGTQVTVSS | 26 | 30 |  | 
3 | DLLBII129D01 (VHH) VHH: EVQLVESGGGLVQAGGSLRLSCAASGRTFSSYAMAWFRQAPGKEREYVAAIRWSGGTAYYADSVQSRFTITRDNAKNTVYLQMNSLKPEDTAVYYCANRAPDTRLEPYLYDHWGQGTQVTVSS | 26 | 26 |  | 
4 | DLLBII129E03 (VHH) VHH: EVQLVESGGGLVQAGGSLRLSCAASGRTFSSYAMAWFRQAPGKDREYVAAIRWSGGTAYYADSVQGRFTISRDNAKNTVYLQMNSLKPEDTAVYYCANRAPDTRLAPYLYDYWGQGTQVTVSS | 18 | 20 |  | 
5 | DLLBII129E07 (VHH) VHH: EVQLVESGGGLVQAGGSLRLSCSASGRTFSSYAMAWYRQAPGKEREYVAAIRWSGGTAYYPDSVQGRFTISRDNAKNTVYLQMNSLKPEDTAVYYCANRAPDTRLAPYEYDHWGQGTQVTVSS | 24 | 21 |  | 
6 | DLLBII129G09 (VHH) VHH: EVQLVESGGGLVQAGGSLRLSCAASGRTFSSYAMAWYRQAPGKEREYVAAIRWSGETAYYADSVQGRFTISRDNAKNTVYLQMNSLKPEDTAVYYCANRAPDTRLEPYLYDHWGQGTQVTVSS | 20 | 26 |  | 
7 | DLLBII129G10 (VHH) VHH: EVQLVESGGGLVQAGGSLRLSCAASGRTFSSYAMAWYRQAPGKEREYVAAIRWSGGTAYYADSVQSRFTISRDNAKNTVYLQMNSLKPEDTAVYYCANRAPDTRLEPYEYDHWGQGTQVTVSS | 26 | 31 |  | 
8 | DLLBII83G01 (VHH, also called DLLBII83G1; not shown: C-terminal c-myc and His6 tags) VHH: EVQLVESGGGLVQAGGSLRLSCAASGRTFSNYIMGWFRQAPGKEREFVAGISRYADYTGYADSVKGRFTISRDNVKNTVYLRMNSLKPDDTAVYYCAANEGYCSGYGCYEDSGQYDYWGQGTQVTVSS |  |  | 87 | 93
9 | DLLBII58A11 (VHH, not shown: C-terminal c-myc and His6 tags) VHH: EVQLVESGGGLVQAGGSLRLSCTTSERTVSRYSMGWFRQAPGKEREAVATISWSGDSTYYADSVKGRFTISRDNTKNTLYLQIDSLKPEDTAVYYCVAKPNLKYGSYWPPRGYDYWGQGTQVTVSS |  |  | 95 | 73
10 | DLLBII61F05 (VHH, also called DLLBII61F5; not shown: C-terminal c-myc and His6 tags) VHH: EVQLVESGGGLVQPGGSLRLSCTASGFTFSSYAMSWVRQAPGKGLEWVSFINKDGSDTGYADSVKGRFTISRDNAKNTMYLQMNSLKPEDTAVYFCETRTSRSPRPRGQGTQVTVSS |  |  | 74 | 76
11 | DLLBII61F07 (VHH, also called DLLBII61F7; not shown: C-terminal c-myc and His6 tags) VHH: EVQLVESGGGLVQAGGSLRLSCAASGRTFSRYAMGWFRQAPGKEREFVAAINWSGGSTYYADSVKGRFTISRDNAKNTVYLQMNSLKPEDTAVYDCAASNYYSVYDDRPVMDYWGQGTQVTVSS |  |  | 79 | 77
12 | DLLBII80E08 (VHH, also called DLLBII80E8; not shown: C-terminal c-myc and His6 tags) VHH: EVQLVESGGGLVQAGGSLTLSCAASGGTFTTYAMGWFRQAPGKEREFVAAVSRFGVSWDYADSVKGRFTISRDNTANTLKLRMNSLKADDTAVYYCAAGGRSFLPFVPAYWGQGTQVTVSS |  |  | 71 | 82
13 | DLLBII47D01 (VHH, also called DLLBII47D1; not shown: C-terminal c-myc and His6 tags) VHH: EVQLVESGGGLVQPGGSLRLSCAASGFTFDDYAIGWFRQAPGKEREGVSCISSSGSTYYADSVKGRFTISRDNAKNTVYLQMNSLKPEDTAVYYCAIAGASSWCFPPGYWGQGTQVTVSS |  |  | 87 | 
14 | DLLBII95F02 (VHH, also called DLLBII95F2; not shown: C-terminal c-myc and His6 tags) VHH: EVQLVESGGGSVQAGGSLRLSCAASGRTFSSYAMGWFRQAPGKEREFVAAINWSGGYTYYADSVRGRFTISRDNAKNTVYLQMNSLKPEDTAVYYCAAPAPGSSGYEYDYWGQGTQVTVSS |  |  | 81 | 71
15 | DLLBII102F08 (VHH, also called DLLBII102F8; not shown: C-terminal c-myc and His6 tags) VHH: EVQLVESGGGLVQTGDSLRLSCAASGSTFSNYRMGWFRQGPGKEREFVAAIGRNGQNTYYTDSVKGRFTVTRDNAKNMVYLQMNSLKPEDSAVYTCAASLRGWDTTRIDYEYWGQGTQVTVSS |  |  | 85 | 75
16 | DLLBII112A03 (VHH, also called DLLBII112A3; not shown: C-terminal c-myc and His6 tags) VHH: EVQLVESGGGLVQPGGSLRLSCAASGIRFSINGMGWYRQAPGKQREAVATITRGGIRDYTDSVKGRFTISRDIARNTVYLQMNNLKPEDSAVYYCNIDIYWGRGTQVTVSS |  |  | 72 | 97
17 | DLLBII102G04 (VHH, also called DLLBII102G4; not shown: C-terminal c-myc and His6 tags) VHH: EVQLMESGGGLVQPGGSLRLSCAASGFTFSSYAMSWVRQAPGKGLEWVSRITSGGRTTYRDSVKGRFTISRDNSKNTLYLQMNSLKPEDTALYYCAKARGDIDVYTLSDSRGQGTQVTVSS |  |  | 86 | 82
18 | DLLBII112A04 (VHH, also called DLLBII112A4; not shown: C-terminal c-myc and His6 tags) VHH: EVQLVESGGGLVQAGGSLRLSCAAFGRTPYGMGWFRQAPGKEREFVAAITSDGSTNYADSVKGRFTISRDNAKNAVSLQMNSLKPEDTAVYYCTAPYYSDFEGTTTEYDYWGQGTQVTVSS |  |  | 75 | 90
19 | DLLBII101H09 (VHH, also called DLLBII101H9; DLL1BII101H09; not shown: C-terminal c-myc and His6 tags) VHH: EVQLVESGGGLVQPGGSLRLSCAASGFTLGYYTIVWFRQAPGKERKGVSCISSRDGSRYYADSVKGRFTISRDNAKNTVYLRMNSLKPEDTAVYYCAAGPDCSSYDYWGQGTQVTVSS |  |  | 87 | 75
20 | DLLBII101H05 (VHH, also called DLLBII101H5; not shown: C-terminal c-myc and His6 tags) VHH: EVQLVESGGGSAQAGGSLRLSCAASGRTSSTYAMGWFRQAPGKEHEFVSAIGRGTGATSYGDSVKGRFTISRDNAKNTVYLQMNSLQLEDTGDYYCVAGRGFYHDYSSYEYRGQGTQVTVSS |  |  |  | 83
21 | DLLBII112E07 (VHH, also called DLLBII112E7; not shown: C-terminal c-myc and His6 tags) VHH: EVQLVESGGGLVQAGGSLRLSCAASGRTVRSYATGWFRQAPGKEREFVAALRWSIGSIASVYYDDSVKGRFTISGDNAENTVYLQMNALKPEDTAIYYCASTTRGRYSALSASAYDYWGQGTQVTVSS |  |  | 80 | 85
22 | DLLBII101F01 (VHH, also called DLLBII101F1; not shown: C-terminal c-myc and His6 tags) VHH: EVQLVESGGGLVQAGGSLRLSCAASGRTFSNYAMGWFRQAPGKEREFVAAISWSGGDTYYADSVKGRFTISRDNAKNTVCLQMNSLKPEDTAVYYCAASFQSGAAPGANFYDYWGQGTQVTVSS |  |  | 85 | 78
23 | DLLBII104A03 (VHH, also called DLLBII104A3; not shown: C-terminal c-myc and His6 tags) VHH: EVQLVESGGGLVQAGGSLRLSCAASGDIPRIAAMGWYRQAPGKQRELVATVSNAATTRYADSAKGRFTISRDNAKTVSLQMDNLKPEDTGVYYCYSLATTVTPSWVNYWGQGTQVTVSS |  |  | 86 | 83
24 | DLLBII104C04 (VHH, also called DLLBII104C4; not shown: C-terminal c-myc and His6 tags) VHH: EVQLVESGGGLVQAGGSLRLSCAAAGSTFSSYVMGWYRQAPGKQRELVAHISTRGITYYADSVKGRFTISRDNAKNTMYLQMNSLKPEDTAVYYCNTRRNFLSNYWGQGTQVTVSS |  |  | 87 | 83
25 | DLLBII104B05 (VHH, also called DLLBII104B5; DLLBII1040B05; not shown: C-terminal c-myc and His6 tags) VHH: EVQLVESGGGSVQAGGSLRLSCAASGSISRIDVMAWYRQAPGKERELVASISSGGSTNYADSVKGRFTISREYFKNMMYLQMNSLKFEDTAVYYCNADSRRGGVGNFFRSWGQGTQVTVSS |  |  | 86 | 78
26 | DLLBII107C03 (VHH, also called DLLBII107C3; not shown: C-terminal c-myc and His6 tags) VHH: EVQLVESGGGLVQPGGSLRLSCEVSGSIGSVSDMRWYRQAPGLQYELVARITSGSITDYSDSVKGRFTISRDNAKNTVYLQMNSLKPEDTAVYYCNADVQHSAWLKPLTYWGQGTQVTVSS |  |  | 75 | 80
